Results reported in the supplement of paper PMC10065799, “High-throughput profiling of sequence recognition by tyrosine kinases and SH2 domains using bacterial peptide display” (eLife, 2023).

Assays:
[1] = biological target: Fyn (UniProt P06241); experiment: phosphorylation enrichment, bacterial display (enrichment ratio); higher = better substrate or ligand; peptides without Tyr show the background
[2] = biological target: MERTK (UniProt Q12866); experiment: as above
[3] = biological target: EPHB1 (UniProt P54762); experiment: as above
[4] = tested on: Fer (mouse); experiment: as above
[5] = biological target: EPHB2 (UniProt P29323); experiment: as above
Chain of EPHB2 (P29323 whole entry, looked up): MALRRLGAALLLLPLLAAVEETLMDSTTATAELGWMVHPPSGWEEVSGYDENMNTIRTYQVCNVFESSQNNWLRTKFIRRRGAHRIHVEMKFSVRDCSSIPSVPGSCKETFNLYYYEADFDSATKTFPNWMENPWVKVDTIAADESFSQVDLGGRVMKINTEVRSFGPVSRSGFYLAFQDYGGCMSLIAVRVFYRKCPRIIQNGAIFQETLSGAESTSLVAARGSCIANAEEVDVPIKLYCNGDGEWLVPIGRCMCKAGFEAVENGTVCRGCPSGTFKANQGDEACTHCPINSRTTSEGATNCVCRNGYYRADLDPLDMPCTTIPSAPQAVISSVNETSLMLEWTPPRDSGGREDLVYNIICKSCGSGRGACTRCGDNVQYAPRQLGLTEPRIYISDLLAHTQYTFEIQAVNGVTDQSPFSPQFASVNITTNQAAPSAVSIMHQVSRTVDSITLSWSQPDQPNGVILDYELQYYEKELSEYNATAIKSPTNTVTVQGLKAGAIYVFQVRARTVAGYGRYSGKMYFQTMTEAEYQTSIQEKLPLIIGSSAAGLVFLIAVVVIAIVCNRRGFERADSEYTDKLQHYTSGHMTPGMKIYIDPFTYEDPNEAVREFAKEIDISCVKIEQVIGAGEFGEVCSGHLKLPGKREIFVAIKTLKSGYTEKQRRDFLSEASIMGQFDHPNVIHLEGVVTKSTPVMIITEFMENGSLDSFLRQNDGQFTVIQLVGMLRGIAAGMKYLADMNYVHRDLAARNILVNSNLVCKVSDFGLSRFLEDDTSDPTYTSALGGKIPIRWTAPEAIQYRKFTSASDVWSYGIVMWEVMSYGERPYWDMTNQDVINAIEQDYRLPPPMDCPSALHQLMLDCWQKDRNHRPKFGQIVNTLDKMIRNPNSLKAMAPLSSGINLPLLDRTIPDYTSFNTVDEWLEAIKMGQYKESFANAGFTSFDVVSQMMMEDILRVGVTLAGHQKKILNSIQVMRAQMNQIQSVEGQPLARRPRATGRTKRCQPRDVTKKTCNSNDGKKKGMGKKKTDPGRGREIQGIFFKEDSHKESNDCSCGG

[6] = biological target: Fes (UniProt P07332); experiment: as above
[7] = tested on: c-Abl (mouse); experiment: as above
[8] = biological target: FGFR1 (UniProt P11362); experiment: as above
Chain of FGFR1 (P11362 whole entry, looked up): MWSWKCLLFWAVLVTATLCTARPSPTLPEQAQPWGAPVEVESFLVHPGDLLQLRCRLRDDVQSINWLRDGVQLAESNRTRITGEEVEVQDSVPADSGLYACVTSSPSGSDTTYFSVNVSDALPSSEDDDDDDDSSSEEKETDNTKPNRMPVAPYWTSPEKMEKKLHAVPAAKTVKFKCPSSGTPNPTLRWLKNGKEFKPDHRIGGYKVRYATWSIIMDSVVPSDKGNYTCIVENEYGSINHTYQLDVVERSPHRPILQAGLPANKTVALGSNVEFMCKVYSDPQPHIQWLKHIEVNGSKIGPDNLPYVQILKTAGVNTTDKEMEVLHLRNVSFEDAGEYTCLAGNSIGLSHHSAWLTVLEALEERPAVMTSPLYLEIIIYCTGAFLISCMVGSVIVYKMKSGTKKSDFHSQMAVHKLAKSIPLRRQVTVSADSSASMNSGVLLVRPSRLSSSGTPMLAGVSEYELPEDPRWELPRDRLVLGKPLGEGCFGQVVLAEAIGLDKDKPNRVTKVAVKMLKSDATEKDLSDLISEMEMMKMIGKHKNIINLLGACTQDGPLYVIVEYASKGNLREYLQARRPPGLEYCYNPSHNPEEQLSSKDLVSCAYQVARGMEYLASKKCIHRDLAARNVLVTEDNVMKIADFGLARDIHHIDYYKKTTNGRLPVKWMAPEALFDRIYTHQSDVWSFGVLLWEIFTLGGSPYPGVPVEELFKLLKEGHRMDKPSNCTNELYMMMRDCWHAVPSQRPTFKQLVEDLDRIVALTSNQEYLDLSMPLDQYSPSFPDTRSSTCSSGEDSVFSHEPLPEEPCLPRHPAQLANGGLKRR

[9] = tested on: c-Src; experiment: as above
[10] = biological target: Jak2 (UniProt O60674); experiment: as above
Chain of Jak2 (O60674 whole entry, looked up): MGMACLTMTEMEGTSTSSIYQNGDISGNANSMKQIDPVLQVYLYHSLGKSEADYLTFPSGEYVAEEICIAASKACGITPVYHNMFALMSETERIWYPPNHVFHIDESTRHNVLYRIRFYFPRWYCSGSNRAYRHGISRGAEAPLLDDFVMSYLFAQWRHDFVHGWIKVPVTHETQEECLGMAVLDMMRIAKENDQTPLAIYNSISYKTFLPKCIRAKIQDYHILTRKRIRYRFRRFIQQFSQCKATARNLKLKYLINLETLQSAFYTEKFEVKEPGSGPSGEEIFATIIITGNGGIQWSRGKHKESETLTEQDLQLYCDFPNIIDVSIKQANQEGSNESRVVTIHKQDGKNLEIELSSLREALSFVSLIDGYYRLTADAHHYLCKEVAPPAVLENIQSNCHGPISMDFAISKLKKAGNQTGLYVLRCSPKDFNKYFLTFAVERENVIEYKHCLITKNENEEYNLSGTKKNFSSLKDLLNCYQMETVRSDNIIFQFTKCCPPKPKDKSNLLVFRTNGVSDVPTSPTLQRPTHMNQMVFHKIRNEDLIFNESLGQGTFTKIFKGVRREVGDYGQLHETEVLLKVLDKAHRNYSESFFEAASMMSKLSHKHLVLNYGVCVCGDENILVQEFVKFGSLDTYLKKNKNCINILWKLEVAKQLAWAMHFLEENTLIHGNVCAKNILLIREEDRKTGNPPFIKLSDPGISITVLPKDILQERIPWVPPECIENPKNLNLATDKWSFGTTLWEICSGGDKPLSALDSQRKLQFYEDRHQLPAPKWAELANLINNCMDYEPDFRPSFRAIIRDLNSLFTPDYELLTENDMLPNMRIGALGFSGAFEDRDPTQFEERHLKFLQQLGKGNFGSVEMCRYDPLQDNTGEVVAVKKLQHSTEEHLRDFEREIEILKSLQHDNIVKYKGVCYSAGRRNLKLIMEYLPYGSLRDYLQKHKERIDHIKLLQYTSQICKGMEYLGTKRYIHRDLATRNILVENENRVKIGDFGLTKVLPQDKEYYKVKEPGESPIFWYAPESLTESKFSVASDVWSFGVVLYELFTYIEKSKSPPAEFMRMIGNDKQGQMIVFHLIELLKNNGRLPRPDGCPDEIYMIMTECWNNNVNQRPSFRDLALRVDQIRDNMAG

[11] = biological target: Hck (UniProt P08631); experiment: as above
[12] = tested on: AncSZ; experiment: as above
[13] = biological target: FGFR3 (UniProt P22607); experiment: as above
Chain of FGFR3 (P22607 whole entry, looked up): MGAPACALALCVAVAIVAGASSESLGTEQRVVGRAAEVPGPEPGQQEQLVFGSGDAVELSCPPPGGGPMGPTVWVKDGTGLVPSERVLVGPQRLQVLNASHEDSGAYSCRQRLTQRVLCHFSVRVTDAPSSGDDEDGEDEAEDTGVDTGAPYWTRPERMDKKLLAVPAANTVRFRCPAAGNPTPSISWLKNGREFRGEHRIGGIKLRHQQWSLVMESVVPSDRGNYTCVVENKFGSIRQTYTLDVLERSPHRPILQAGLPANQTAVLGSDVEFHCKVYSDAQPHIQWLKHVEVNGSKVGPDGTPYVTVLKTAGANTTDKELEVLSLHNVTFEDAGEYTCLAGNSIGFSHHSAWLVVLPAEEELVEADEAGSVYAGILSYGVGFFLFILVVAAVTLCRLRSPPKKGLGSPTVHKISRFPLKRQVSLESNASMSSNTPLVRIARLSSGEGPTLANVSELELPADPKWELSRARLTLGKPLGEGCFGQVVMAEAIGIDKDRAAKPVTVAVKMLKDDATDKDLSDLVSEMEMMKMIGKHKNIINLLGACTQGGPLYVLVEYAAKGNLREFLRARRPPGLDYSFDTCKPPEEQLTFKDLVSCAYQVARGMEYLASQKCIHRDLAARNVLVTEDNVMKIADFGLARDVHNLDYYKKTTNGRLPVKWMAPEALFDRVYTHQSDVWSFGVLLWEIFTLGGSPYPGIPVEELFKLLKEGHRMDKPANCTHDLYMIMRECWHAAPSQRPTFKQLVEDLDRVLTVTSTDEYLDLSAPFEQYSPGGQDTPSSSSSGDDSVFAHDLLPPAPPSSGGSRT

[14] = biological target: Grb2 SH2 (UniProt P62993); experiment: SH2 binding enrichment of the phosphorylated peptide, bacterial display (enrichment ratio); higher = better substrate or ligand; peptides without Tyr show the background
Chain of Grb2 SH2 (P62993 whole entry, looked up): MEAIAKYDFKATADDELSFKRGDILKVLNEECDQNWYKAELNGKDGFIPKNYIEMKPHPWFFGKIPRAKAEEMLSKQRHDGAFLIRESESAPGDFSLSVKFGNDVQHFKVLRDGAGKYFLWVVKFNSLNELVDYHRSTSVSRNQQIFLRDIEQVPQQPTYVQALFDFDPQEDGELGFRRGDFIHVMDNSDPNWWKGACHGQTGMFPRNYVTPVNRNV

[15] = biological target: c-Src SH2; experiment: as above
[16] = biological target: SHP2-C SH2; experiment: as above
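Throughout, for SH2 binding enrichment of the phosphorylated peptide, bacterial display: peptide library displayed on the E. coli surface as eCPX fusions, selected cells deep-sequenced, score is each peptide's frequency after selection divided by its frequency in the input.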
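Throughout, for phosphorylation enrichment, bacterial display: 11-residue human phosphosite peptides and single-mutation variants displayed on the E. coli surface, counted by deep sequencing, each peptide's frequency after selection divided by its frequency in the unselected input library; frequency after pTyr selection over input frequency; kinase dosed for 20-30% of maximal phosphorylation in three min.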

Chain of Fyn (P06241 whole entry, looked up): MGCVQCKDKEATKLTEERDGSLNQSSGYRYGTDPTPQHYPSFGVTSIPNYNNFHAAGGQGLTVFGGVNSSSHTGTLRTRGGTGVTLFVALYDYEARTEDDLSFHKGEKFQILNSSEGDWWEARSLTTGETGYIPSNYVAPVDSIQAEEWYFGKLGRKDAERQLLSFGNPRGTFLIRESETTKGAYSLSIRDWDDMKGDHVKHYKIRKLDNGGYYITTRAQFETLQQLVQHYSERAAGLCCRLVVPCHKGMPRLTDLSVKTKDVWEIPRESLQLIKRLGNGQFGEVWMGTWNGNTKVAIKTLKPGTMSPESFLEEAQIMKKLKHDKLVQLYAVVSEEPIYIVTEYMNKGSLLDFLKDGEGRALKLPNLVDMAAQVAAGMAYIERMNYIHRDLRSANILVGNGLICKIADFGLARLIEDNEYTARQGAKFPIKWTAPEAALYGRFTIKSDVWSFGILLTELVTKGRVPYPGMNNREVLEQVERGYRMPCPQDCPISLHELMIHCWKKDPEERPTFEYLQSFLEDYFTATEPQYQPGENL

Sequence | phosphorylation enrichment [1] | phosphorylation enrichment [2] | phosphorylation enrichment [3] | phosphorylation enrichment [4] | phosphorylation enrichment [5] | phosphorylation enrichment [6] | phosphorylation enrichment [7] | phosphorylation enrichment [8] | phosphorylation enrichment [9] | phosphorylation enrichment [10] | phosphorylation enrichment [11] | phosphorylation enrichment [12] | phosphorylation enrichment [13] | SH2 binding enrichment [14] | SH2 binding enrichment [15] | SH2 binding enrichment [16]
IEPVIYVVQRR [ANOS1_Y217] | 0.304 | 0.531 | 0.209 | 0.271 | 0.486 | 1.23 | 0.58 | 0.368 | 0.356 | 1.1 | 0.315 | 1.37 | 0.475 | 0.512 | 0.255 | 0.236
HLQQSYLPRGT [TEX45_Y396] | 0.939 | 0.66 | 0.622 | 0.697 | 0.773 | 1.26 | 1.59 | 0.97 | 1.32 | 1.38 | 0.661 | 1.04 | 0.927 | 0.442 | 0.3 | 0.458
ERLLDYTRTVQ [INPP5E_Y439] | 0.495 | 0.365 | 0.663 | 0.544 | 0.451 | 1.06 | 0.853 | 0.518 | 0.493 | 1.06 | 0.439 | 0.945 | 0.665 | 0.777 | 0.39 | 0.584
WAAQRYGRELR [BAD_Y110] | 0.445 | 0.514 | 0.406 | 0.398 | 0.433 | 0.742 | 0.599 | 0.464 | 0.487 | 0.782 | 0.476 | 0.887 | 0.396 | 0.758 | 0.508 | 0.583
VTNHIYTWVDP [DFNB31_Y234] | 4.26 | 7.06 | 2.73 | 10.2 | 1.63 | 2 | 0.711 | 3.77 | 3.2 | 0.87 | 3.06 | 2.57 | 3.33 | 1.14 | 1.05 | 0.956
KPVDTYFDSTR [DYNC2H1_Y2230_M2227V_YF] | 0.567 | 0.54 | 0.668 | 0.472 | 0.556 | 0.997 | 0.611 | 0.624 | 0.43 | 0.723 | 0.565 | 0.925 | 0.73 | 0.83 | 0.422 | 0.693
ANNPLYKEVTS [ITGB3_Y773_A776V] | 0.428 | 0.481 | 0.506 | 0.486 | 0.409 | 0.797 | 0.584 | 0.495 | 0.467 | 0.691 | 0.551 | 0.695 | 0.58 | 1.07 | 0.733 | 0.563
QDEHGYISWCF [HSPB1_Y133_R136W] | 0.559 | 0.8 | 1 | 1.05 | 0.873 | 2.34 | 1.55 | 1.27 | 0.865 | 2.61 | 0.944 | 2.17 | 1.8 | 0.64 | 0.545 | 0.463
VTGWGYRKLRE [F11_Y521_D526E] | 0.495 | 0.546 | 0.415 | 0.508 | 0.455 | 0.763 | 0.588 | 0.476 | 0.578 | 0.579 | 0.407 | 0.907 | 0.631 | 0.63 | 0.584 | 0.375
CDGKEYDPVEA [MAPRE2_Y167_Y162C] | 0.598 | 0.541 | 0.64 | 0.65 | 0.66 | 1.66 | 0.883 | 0.594 | 0.649 | 1.54 | 0.567 | 1.36 | 0.721 | 0.714 | 0.615 | 0.891
KSFDMYSGDVM [FAM3D_Y122_A118S] | 1.06 | 0.914 | 1.6 | 0.589 | 1.22 | 0.856 | 0.609 | 0.654 | 1.1 | 0.698 | 1.13 | 0.998 | 0.667 | 0.803 | 0.613 | 0.674
GRVLGYGAFGK [FLT4_Y853] | 0.446 | 0.339 | 0.364 | 0.371 | 0.354 | 0.57 | 0.434 | 0.348 | 0.41 | 0.662 | 0.427 | 0.431 | 0.474 | 1.28 | 0.556 | 0.851
ENAGFYFQVSA | 0.329 | 0.333 | 0.483 | 0.474 | 0.493 | 1.15 | 0.797 | 0.416 | 0.347 | 1.3 | 0.304 | 1.08 | 0.721 | 0.629 | 0.537 | 0.658
AASTDYYKRGD [PDHA1_Y242] | 0.597 | 0.511 | 0.51 | 0.515 | 0.45 | 0.811 | 0.615 | 0.592 | 0.523 | 0.811 | 0.568 | 0.83 | 0.586 | 0.824 | 0.4 | 0.593
AELVPYFMEHH [PTPN11_Y80_Q79P_YF] | 0.636 | 0.463 | 0.605 | 0.515 | 0.602 | 1.15 | 0.741 | 0.531 | 0.883 | 1.02 | 0.562 | 0.913 | 0.614 | 0.876 | 0.607 | 0.787
TESNNYIFKTL [FAM83B_Y637_YF] | 0.528 | 0.664 | 0.604 | 0.597 | 1.06 | 1.12 | 0.762 | 0.645 | 0.642 | 0.926 | 0.643 | 1.26 | 0.82 | 0.879 | 0.492 | 1.2
IKETHYMVDKC | 0.46 | 0.437 | 0.447 | 0.507 | 0.531 | 0.944 | 0.652 | 0.489 | 0.403 | 0.804 | 0.448 | 0.8 | 0.543 | 0.684 | 0.525 | 0.68
